Measured values as given in paper PMC12663309.

Molecular target: NEK7-mut (NEK7 with deletion of the binding sites) (UniProt Q8TDX7)
Experiment: SPR; Biacore T200; NEK7 or NEK7-mut immobilised by amine coupling; SDHB flowed at different concentrations; 1:1 Langmuir binding model

Chain of NEK7-mut (NEK7 with deletion of the binding sites) (Q8TDX7 whole entry, stated change not applied): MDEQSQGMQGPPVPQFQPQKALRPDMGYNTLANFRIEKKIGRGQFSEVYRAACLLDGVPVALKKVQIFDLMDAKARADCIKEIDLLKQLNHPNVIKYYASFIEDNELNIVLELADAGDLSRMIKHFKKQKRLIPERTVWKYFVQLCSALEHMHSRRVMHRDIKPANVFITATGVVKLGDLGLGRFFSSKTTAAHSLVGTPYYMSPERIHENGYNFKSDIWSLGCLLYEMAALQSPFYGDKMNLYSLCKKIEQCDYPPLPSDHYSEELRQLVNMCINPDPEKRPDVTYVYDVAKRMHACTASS

B1: human SDHB recombinant protein (Ag29868, Proteintech) (natural protein)
chain: AQTAAATAPRIKKFAIYRWDPDKAGDKPHMQTYEVDLNKCGPMVLDALIKIKNEVDSTLTFRRSCREGICGSCAMNINGGNTLACTRRIDTNLNKVSKIYPLPHMYVIKDLVPDLSNFYAQYKSIEPYLKKKDESQEGKQQYLQSIEEREKLDGLYECILCACCSTSCPSYWWNGDKYLGPAVLMQAYRWMIDSRDDFTEERLAKLQDPFSLYRCHTIMNCTRTCPKGLNPGKAIAEIKKMMATYKEKKASV
Binder B1 has a Kd of 4.75 µM.
